These results are taken from publication PMC5081055, “Molecular basis of classic galactosemia from the structure of human galactose 1-phosphate uridylyltransferase” (Human Molecular Genetics, 2016).

Series [1] concerns the molecule itself. In words: crystal structure; hGALT 20 mg/ml pre-incubated with 5 mM UDP-Glc; vapour diffusion at 20 °C, 0.2 M ammonium sulphate, 30% PEG 8000; two chains in the asymmetric unit; dimer interactions analysed with PISA.
Series [2] concerns the molecule itself. In words: small angle X-ray scattering (SAXS); HPLC-SAXS at 10 mg/ml in 10 mM HEPES pH 7.5, 150 mM NaCl, 0.5 mM TCEP; ab initio envelopes by GASBOR.

B1: uridylylated human galactose 1-phosphate uridylyltransferase (UMP-hGALT) (enzyme, UniProt P07902 1-379, looked up)
chain: MSRSGTDPQQRQQASEADAAAATFRANDHQHIRYNPLQDEWVLVSAHRMKRPWQGQVEPQLLKTVPRHDPLNPLCPGAIRANGEVNPQYDSTFLFDNDFPALQPDAPSPGPSDHPLFQAKSARGVCKVMCFHPWSDVTLPLMSVPEIRAVVDAWASVTEELGAQYPWVQIFENKGAMMGCSNPHPHCQVWASSFLPDIAQREERSQQAYKSQHGEPLLMEYSRQELLRKERLVLTSEHWLVLVPFWATWPYQTLLLPRRHVRRLPELTPAERDDLASIMKKLLTKYDNLFETSFPYSMGWHGAPTGSEAGANWDHWQLHAHYYPPLLRSATVRKFMVGYEMLAQAQRDLTPEQAAERLRALPEVHYHLGQKDRETATIA
modifications: UMP covalently bound to His186 (uridylylated)
notes: human galactose 1-phosphate uridylyltransferase (GALT, EC 2.7.7.12), full length, from a cDNA clone with the p.Asn314Asp polymorphism; Crystallised after pre-incubation with 5 mM UDP-Glc; for SAXS made by overnight incubation with 2 mM UDP-glucose; also called UMP-GALT; uridylylated hGALT; source: incubated with UDP-glucose; not shown: His6, N-terminal, cleaved
In general, stoichiometry N refers to the number of molecules, sites or subunits per partner or assembly. With B1, the “stoichiometry N” value in series [1] was determined as 2.

B2: apo human galactose 1-phosphate uridylyltransferase (apo-hGALT) (enzyme, UniProt P07902 1-379, looked up)
chain: MSRSGTDPQQRQQASEADAAAATFRANDHQHIRYNPLQDEWVLVSAHRMKRPWQGQVEPQLLKTVPRHDPLNPLCPGAIRANGEVNPQYDSTFLFDNDFPALQPDAPSPGPSDHPLFQAKSARGVCKVMCFHPWSDVTLPLMSVPEIRAVVDAWASVTEELGAQYPWVQIFENKGAMMGCSNPHPHCQVWASSFLPDIAQREERSQQAYKSQHGEPLLMEYSRQELLRKERLVLTSEHWLVLVPFWATWPYQTLLLPRRHVRRLPELTPAERDDLASIMKKLLTKYDNLFETSFPYSMGWHGAPTGSEAGANWDHWQLHAHYYPPLLRSATVRKFMVGYEMLAQAQRDLTPEQAAERLRALPEVHYHLGQKDRETATIA
notes: human galactose 1-phosphate uridylyltransferase (GALT, EC 2.7.7.12), full length, from a cDNA clone with the p.Asn314Asp polymorphism; De-uridylylated form made by overnight incubation with 2 mM glucose 1-phosphate; source: incubated with glucose 1-phosphate; not shown: His6, N-terminal, cleaved
B2: in series [2], the “stoichiometry N” value came out at 2.

B3: human galactose 1-phosphate uridylyltransferase variant p.Gln188Arg, hGALT(p.Q188R) (enzyme, UniProt P07902 1-379, looked up)
chain: MSRSGTDPQQRQQASEADAAAATFRANDHQHIRYNPLQDEWVLVSAHRMKRPWQGQVEPQLLKTVPRHDPLNPLCPGAIRANGEVNPQYDSTFLFDNDFPALQPDAPSPGPSDHPLFQAKSARGVCKVMCFHPWSDVTLPLMSVPEIRAVVDAWASVTEELGAQYPWVQIFENKGAMMGCSNPHPHCRVWASSFLPDIAQREERSQQAYKSQHGEPLLMEYSRQELLRKERLVLTSEHWLVLVPFWATWPYQTLLLPRRHVRRLPELTPAERDDLASIMKKLLTKYDNLFETSFPYSMGWHGAPTGSEAGANWDHWQLHAHYYPPLLRSATVRKFMVGYEMLAQAQRDLTPEQAAERLRALPEVHYHLGQKDRETATIA
notes: As purified only the apo enzyme was seen by mass spectrometry; not shown: His6, N-terminal, cleaved
Take B3: the “stoichiometry N” value in series [2] amounted to 2.
